B1: TPR t1 (parent)
chain: GACCAAUCUGCCCUCAGAGCUCGAGAACAUCUUCGGAUGCAGAGGAGGCAGGCUUCGGUGGCGCGAUAGCGCCAACGUCCUCAACCUCCAAUGCAUCCCACCACAUGAUGAUGCCUGAAGAGCCUUGGUUUUUUG

The variants in this data set derive from B1. The data set can be described thus: polymerase ribozyme fitness, log enrichment relative to wild type (log ratio); higher = more active; in vitro selection for triplet polymerase activity. A digest of the protocol: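 Each subunit of a heterodimeric triplet polymerase ribozyme was represented by a PCR-built, transcribed mutant library that underwent triplicate single-round in vitro selection with frozen incubation at −7 °C. Extended constructs were recovered by gel excision, streptavidin-bead capture and RT-PCR, and Illumina sequencing of input and output libraries kept genotypes with ≥10 input reads and ≥1 read per output. Fitness is the logarithm of genotype enrichment relative to wild-type enrichment, from inverse-variance-weighted replicate averages, with a logarithm base of 2.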
Consider C15U G60A G128A, for which the “polymerase ribozyme fitness (log ratio)” value is -2.6. As for C15U A100C, the figure is -2.86; as for A16U C28U G71U, -3.34; as for A16G A18C U54G, -0.225. Regarding A16C C101A G120A, the “polymerase ribozyme fitness (log ratio)” value was -3.59. As for C15U A43C G69A, the figure is -4.44; as for C15U G61U A91G A121C U126A, -4.05; as for A16C G69U, -1.81. As for C15U C85A C124U G128C U133G, the figure is -4.88; as for C15U C56A C62A G110C, -6.04. As for C15U C22U C72U G120C, the figure is -3.96; as for A16C C62U A83C C88G, -2.71.

Take C15U A18U C49G C72A U92C: the “polymerase ribozyme fitness (log ratio)” value is -5.58.

As for A16U C31U, the “polymerase ribozyme fitness (log ratio)” value was -4.77. As for C15U C64U, the figure is -1.59; as for C15U C34A G60C C76U C82G A105G G113U, -6.4; as for C15U A37C C53A, -1.72. Consider C15U G77A U87G U125A, for which the “polymerase ribozyme fitness (log ratio)” value was -2.39. As for A16G U129G, the figure is -3.64. As for C15U G47A G69C C85A A119U C124U, the figure is -3.68; as for A16G C53G G58A A91C A119U, -4.1. As for C15U A90U, the figure is -2.96; as for A16G A37G, -1.71; as for A16U C53G G93C C123A, -1.64. For C15U C72U U78A C85G C98A C104G C123U G128C, the “polymerase ribozyme fitness (log ratio)” value was -6.7. Turning to A16U C70U, the “polymerase ribozyme fitness (log ratio)” value is -1.98. As for A16U C72G C104U, the figure is -1.7; as for A16G A29U C40A G61U, -4.63; as for A16U A105C G120U, -3.61. As for G17A, the figure is -2.59.

In the case of C15U G39A C98U, the “polymerase ribozyme fitness (log ratio)” value was -3.87. As for C15U A26U, the figure is -5.06; as for C15U G128C, -3.18; as for A16U G61U G135U, -1.98. As for A16U A26G C56U C88U C124G, the figure is -1.25; as for C15U U78G C114U, -4.55. As for C15U G39C C94U C115U C123A G135U, the figure is -5.48.

Regarding A16U U81A, the “polymerase ribozyme fitness (log ratio)” value is -2.6. Turning to A16U U81G, the “polymerase ribozyme fitness (log ratio)” value was -5.13.

On to A16U G45A C70U A118U, for which the “polymerase ribozyme fitness (log ratio)” value was -2. As for C15U G44A C56A C62A G71C U131A, the figure is -3.4; as for C15U C70G C97U, -3.09; as for A16G C62A C97U, -3.6. As for A16G C72G U129G, the figure is -2.89. As for C15U C53U G61U C97U, the figure is -2.21; as for A16C G44U G69U U125G, -2.18; as for A16C U87C, -2.31. As for A16U C40U C73G, the “polymerase ribozyme fitness (log ratio)” value was -2.11. As for A16C C64U U78C U87A G113U U116A, the figure is -7.76. As to A16U G69U C89U, the “polymerase ribozyme fitness (log ratio)” value was -1.47.

With C15U G52A C62U A74U A83U U132A, the “polymerase ribozyme fitness (log ratio)” value was -3.97. As for A16G C34A, the figure is -3.22; as for A16U C123A U125A, -0.935; as for C15U C123G, 0.228. For C15U C76A U87A C101G, the “polymerase ribozyme fitness (log ratio)” value is -4.

For the variant C15U A18U C31A G39U U54A C70U C114U C115G, the “polymerase ribozyme fitness (log ratio)” value was -5.12. As for A16U C53G, the figure is -1.82; as for A16U A29U G36A A43C G44U C53A G63C U112C, -5.08; as for A16U C56U, -1.86.

Consider A16U C53G U59C U96G U112A G128C, for which the “polymerase ribozyme fitness (log ratio)” value was -3.81.

For the variant A16U G45C C53G A90G G113A A121C, the “polymerase ribozyme fitness (log ratio)” value is -4.47. As for A16U G61C U130G, the figure is -2.75; as for A16U C22U C124A, -2.87. As for A16C C101U, the figure is -2.45. For the variant A16U A46C C94U G120C, the “polymerase ribozyme fitness (log ratio)” value is -0.971. As for A16U G63A, the figure is -2.16. As for C15U C20A C72U C86U, the figure is -3.76.

In the case of A16U A83U U112G C115A, the “polymerase ribozyme fitness (log ratio)” value is -4.6. As for C15U G120C, the figure is -0.175; as for A16G G77A A111G G113A A118G, -3.63.

As for A16G U116C, the “polymerase ribozyme fitness (log ratio)” value came to 1.6. As for A16U C70G C79U C94U, the figure is -2.44. As for A16C A83C U106C C115U U125C, the figure is -2.38; as for A16C A50U U54A C86G, -5.88; as for A16U G17C C73U, -3.41.

Take C15U G71A: the “polymerase ribozyme fitness (log ratio)” value was -2.11. As for C15U G71C, the figure is -1.05; as for C15U G36A G69U C72U, -1.55; as for A16U C49A A121U U129G, -0.0419. As for C15U U78A C86G, the figure is -3.29.

Consider A16U G36A G44U A83C, for which the “polymerase ribozyme fitness (log ratio)” value is -5.08. As for C15U C49A C62U U116A A121C U131G, the figure is -3.93; as for C15U C99U, -3.99; as for A16U G63U G113U, -5.93. As for C15U G93U, the figure is -2.38; as for A16G U109C, -5.19. In the case of A16G A50U, the “polymerase ribozyme fitness (log ratio)” value was -2.5.

Consider A16U C70A U116C U130G, for which the “polymerase ribozyme fitness (log ratio)” value is -2.69. As for A16G U21C G48A A100C C123A, the figure is -4.34; as for A16C G44C C73A C86U G120U, -2.98. As for C15U G45A C56A G77C C88G G117C C123U, the figure is -4.21; as for A16G A50U C53A G63U A100C C114G A121C, -7.46; as for C15U C72A C85G C102A, -3.1.

A16U G52C G71U G117C A118G U126A: the “polymerase ribozyme fitness (log ratio)” value is -6.61. As for C15U G44C A50C G61U U96C C104U, the figure is -2.29; as for C15U A41C G45A G71C U112A G117A G127C, -4.04. As for A16G A91U G113U, the figure is -2.28. As for C15G U132A, the figure is -2.31; as for A16C C56G A121C, -1.27; as for C15U G17U A91G C98U A111C, -6.3.

For the variant C15U C76G, the “polymerase ribozyme fitness (log ratio)” value was -1.31. As for C15U C72G A100U U130A, the figure is -2.29; as for A16U C94U C101U U116C G128U U132A, -5.42; as for A16C U132A, -2.47. As for C15U C20G G51A C98G U109A, the figure is -2.04; as for A16U A26G C88U C124G, -1.11; as for C15U A43U A84C, -2.66. As for C15U A41U A90C C115G, the figure is -4.18; as for A16G C40U A50U U55G C70U C79U U92C U112A, -7.45. Consider C15U C73U C85G, for which the “polymerase ribozyme fitness (log ratio)” value is -1.89.

Regarding A16C C124G, the “polymerase ribozyme fitness (log ratio)” value was 1.

Turning to A16U G52U U78C A111C U126G G127U, the “polymerase ribozyme fitness (log ratio)” value is -3.36.

As to C15U G19U C124G, the “polymerase ribozyme fitness (log ratio)” value is -2.54. Take A16U C56G G63U C101U: the “polymerase ribozyme fitness (log ratio)” value is -4.93.

With A16U C28U G120U, the “polymerase ribozyme fitness (log ratio)” value is -3.52.

As to A16U A50G G60U C97G U125A, the “polymerase ribozyme fitness (log ratio)” value is -7.95. As for A16U A75G A83U A100U G110A, the figure is -4.47; as for A16G G51C, -5.21. As for C15U A43U G48A A100C A111G, the figure is -5.15; as for C15U U33G C88G C115G, -6.42. With C15U C34A C123U, the “polymerase ribozyme fitness (log ratio)” value was -3.01. As for C15U G39C G69U C94U C115U C123A G135U, the figure is -1.89; as for C15U C72A G110U, -2.17; as for A16G G61A, -1.13.

For the variant C15U A111C U130A, the “polymerase ribozyme fitness (log ratio)” value was -1.29. Take A16U U32A A46U A66C A103C A111G: the “polymerase ribozyme fitness (log ratio)” value is -7.56. As for C15U G23C A27U G45C G113C, the figure is -6.21. In the case of C15U A46U U54G C123A, the “polymerase ribozyme fitness (log ratio)” value is -1.74. Take C15U G47C G48U C62G A100U C124U: the “polymerase ribozyme fitness (log ratio)” value was -5.24. C15U A43C C76U: the “polymerase ribozyme fitness (log ratio)” value is -3.95. As for C15U A43U C72G C88U A91C G120C, the figure is -1.58; as for C15U G60U C123U, -0.514; as for A16G C40U A43U C72G, -3.42. Turning to A16U G47U G52A, the “polymerase ribozyme fitness (log ratio)” value is -4.24. As for A16U A18C G52A U96C U112A, the figure is -4.51; as for C15U G61C C104A C124U, -3.58; as for A16U G61A, -0.972. As for A16U C73U A83U A95C, the figure is -2.3; as for A16G A18C U54G A121G, 0.49; as for A16G C56A C72A C86G G110A U112A, -3.93.

A16U A95C: the “polymerase ribozyme fitness (log ratio)” value was -2.59. As for A16C A27G G61A U112C, the figure is -1.49; as for C15U C49U U55G C73U, -1.56; as for A16U A83C G120U C123A G127C U131A, -1.95.

For C15U U21A A100C U109C G117U U130A, the “polymerase ribozyme fitness (log ratio)” value is -6.66. For C15U C73U G77A C98A, the “polymerase ribozyme fitness (log ratio)” value was -8.01. As for C15U U32C, the figure is -1.42; as for A16C G61C C88U, -4.85. On to A16G C70U C82G, for which the “polymerase ribozyme fitness (log ratio)” value is -2.05. As for A16C U112G, the figure is -2.88.

In the case of A16G C98U, the “polymerase ribozyme fitness (log ratio)” value is -3.02. As for C15U C28U C72G U96C, the figure is -3.94.

As to C15U U21C C49G C62A G117A, the “polymerase ribozyme fitness (log ratio)” value was -1.27.

Regarding C15U, the “polymerase ribozyme fitness (log ratio)” value is -1.37.

For the variant C15U G39A G60A G117C G120A, the “polymerase ribozyme fitness (log ratio)” value was -4.8. As for C15U A74G A105G, the figure is -4.44. In the case of A16C C53A C56A G60A, the “polymerase ribozyme fitness (log ratio)” value was -4.12. As for A16G G42C A43C C123A, the figure is -3.43; as for A16U C53A A66C, -2.72. As for A16U G58A C62A, the figure is -3.9; as for C15U A18U G44U G69U, -5.2; as for C15U U59G U96C C102A G120C U133A, -2.28. For the variant A16G G60A, the “polymerase ribozyme fitness (log ratio)” value is -1.26.

Turning to C15U A37G C53G U129C, the “polymerase ribozyme fitness (log ratio)” value was -2.67. As for A16U C89G U130C, the figure is -2.31; as for A16C G52A G60A, -2.03. As for A16U C82G U87A, the figure is -3.81.
